{"source": "paper PMC10849593", "about": "(Science Advances, 2024)", "key": {"[1]": {"biological_target": "MutLβ (MLH1-PMS1 heterodimer) carrying a 6xHis tag on the PMS1 subunit (human, UniProt P40692;P54277)", "assay": "pull-down"}, "[2]": {"biological_target": "T1, MutSβ WT, MSH3 subunit;MutSβ, MSH2 subunit (human;human?, UniProt P20585;P43246 1-1137;1-934, |)", "assay": "pull-down"}, "[3]": {"biological_target": "T1, MutSβ WT, MSH3 subunit;MutSβ, MSH2 …", "assay": "EMSA"}}}
{"binder": "Flag-tagged FANCJ (enzyme) MSSMWSEYTIGGVKIYFPYKAYPSQLAMMNSILRGLNSKQHCLLESPTGSGKSLALLCSALAWQQSLSGKPADEGVSEKAEVQLSCCCACHSKDFTNNDMNQGTSRHFNYPSTPPSERNGTSSTCQDSPEKTTLAAKLSAKKQASIYRDENDDFQVEKKRIRPLETTQQIRKRHCFGTEVHNLDAKVDSGKTVKLNSPLEKINSFSPQKPPGHCSRCCCSTKQGNSQESSNTIKKDHTGKSKIPKIYFGTRTHKQIAQITRELRRTAYSGVPMTILSSRDHTCVHPEVVGNFNRNEKCMELLDGKNGKSCYFYHGVHKISDQHTLQTFQGMCKAWDIEELVSLGKKLKACPYYTARELIQDADIIFCPYNYLLDAQIRESMDLNLKEQVVILDEAHNIEDCARESASYSVTEVQLRFARDELDSMVNNNIRKKDHEPLRAVCCSLINWLEANAEYLVERDYESACKIWSGNEMLLTLHKMGITTATFPILQGHFSAVLQKEEKISPIYGKEEAREVPVISASTQIMLKGLFMVLDYLFRQNSRFADDYKIAIQQTYSWTNQIDISDKNGLLVLPKNKKRSRQKTAVHVLNFWCLNPAVAFSDINGKVQTIVLTSGTLSPMKSFSSELGVTFTIQLEANHIIKNSQVWVGTIGSGPKGRNLCATFQNTETFEFQDEVGALLLSVCQTVSQGILCFLPSYKLLEKLKERWLSTGLWHNLELVKTVIVEPQGGEKTNFDELLQVYYDAIKYKGEKDGALLVAVCRGKVSEGLDFSDDNARAVITIGIPFPNVKDLQVELKRQYNDHHSKLRGLLPGRQWYEIQAYRALNQALGRCIRHRNDWGALILVDDRFRNNPSRYISGLSKWVRQQIQHHSTFESALESLAEFSKKHQKVLNVSIKDRTNIQDNESTLEVTSLKYSTSPYLLEAASHLSPENFVEDEAKICVQELQCPKIITKNSPLPSSIISRKEKNDPVFLEEAGKAEKIVISRSTSPTFNKQTKRVSWSSFNSLGQYFTGKIPKATPELGSSENSASSPPRFKTEKMESKTVLPFTDKCESSNLTVNTSFGSCPQSETIISSLKIDATLTRKNHSEHPLCSEEALDPDIELSLVSEEDKQSTSNRDFETEAEDESIYFTPELYDPEDTDEEKNDLAETDRGNRLANNSDCILAKDLFEIRTIKEVDSAREVKAEDCIDTKLNGILHIEESKIDDIDGNVKTTWINELELGKTHEIEIKNFKPSPSKNKGMFPGFK", "values": [{"measurement": "binding result", "setting": "[1]", "result": "binds"}]}
{"binder": "b66-G4 (structured_DNA) DNA: TTTTTTTTTTTTTTTTTTTTTTTTTTTTTTTTTTTTTTTTTTTTTGGGTGGGTGGGTGGGTTTTTT", "values": [{"measurement": "binding result", "setting": "[2]", "result": "binds"}]}
{"binder": "AGGGGGGAGGGAGGGTGG (structured_DNA)", "note": "[CEB1 G4]", "values": [{"measurement": "binding result", "setting": "[3]", "result": "binds"}]}
